This note sets out measurements from patent publication US20250188157A1 (UNIVERSITY OF TOKYO, published 2025).

Assay [1] deals with T1, E. coli wild-type SHMT, GST fusion protein (E. coli, UniProt P0A825 1-417).
T1 construct: Overexpressed in E. coli as GST fusion protein, purified, coated at 2 ug/ml on the ELISA plate; not shown: GST tag
T1 sequence: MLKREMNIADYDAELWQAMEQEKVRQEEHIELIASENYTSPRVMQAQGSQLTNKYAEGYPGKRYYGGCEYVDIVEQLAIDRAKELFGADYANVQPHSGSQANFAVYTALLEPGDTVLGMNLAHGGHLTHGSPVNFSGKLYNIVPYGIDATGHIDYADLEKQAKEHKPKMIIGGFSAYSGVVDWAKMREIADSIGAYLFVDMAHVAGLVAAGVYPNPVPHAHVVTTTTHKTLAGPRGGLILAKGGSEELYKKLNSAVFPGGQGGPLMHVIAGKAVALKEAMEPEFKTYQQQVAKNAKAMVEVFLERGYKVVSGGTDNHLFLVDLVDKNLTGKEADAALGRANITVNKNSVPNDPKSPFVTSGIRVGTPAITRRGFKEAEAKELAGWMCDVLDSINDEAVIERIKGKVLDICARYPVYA
Nature of the assay: ELISA, GST fusion protein coated at 2 ug/ml, dilution series of antibody. Background: In an ELISA, binding on a coated surface is turned into a signal by an enzyme label.

A further assay has as its target T2, E. coli iPGM (E. coli, UniProt P37689 1-514, limits assumed).
T2 sequence (looked up): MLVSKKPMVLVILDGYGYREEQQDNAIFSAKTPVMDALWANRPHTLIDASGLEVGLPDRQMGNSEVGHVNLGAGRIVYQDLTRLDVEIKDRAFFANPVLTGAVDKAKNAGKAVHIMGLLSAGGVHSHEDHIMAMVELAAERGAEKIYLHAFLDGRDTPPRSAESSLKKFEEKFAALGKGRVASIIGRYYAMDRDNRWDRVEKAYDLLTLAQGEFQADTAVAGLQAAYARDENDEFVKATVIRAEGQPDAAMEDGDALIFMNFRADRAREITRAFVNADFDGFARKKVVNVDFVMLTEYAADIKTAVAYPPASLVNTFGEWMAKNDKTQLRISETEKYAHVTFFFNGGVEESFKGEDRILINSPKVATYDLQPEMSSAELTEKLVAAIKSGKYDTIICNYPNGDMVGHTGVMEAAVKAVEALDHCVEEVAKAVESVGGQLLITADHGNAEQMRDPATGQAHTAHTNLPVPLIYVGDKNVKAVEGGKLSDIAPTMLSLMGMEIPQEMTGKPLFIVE
Nature of the assay: Western blot. Background: In western blotting, separated proteins are transferred to a membrane and probed.

For assay [2], the target named is T3, C. difficile iPGM (486-509) (Clostridium difficile).
T3 construct: the blank is left out; also called C. difficile iPGM antigen
T3 peptide: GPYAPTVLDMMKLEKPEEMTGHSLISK
Nature of the assay: X-ray crystal structure of the complex.

In a further assay the target is T4, E. coli SHMT (25-45) (E. coli).
T4 construct: Expressed as GST fusion, cleaved with HRV 3C protease and purified for crystallisation; also called E. coli SHMT antigen
T4 peptide: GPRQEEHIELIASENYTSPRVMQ
Briefly: X-ray crystal structure of the complex.

B1: RS_H007_L001 (antibody, V domains shown)
VH: EVQLQQSGSELVKSGASVKLSCTVSGFNFTNYYIHWVRQRTEQGLEWIGRIDPENNQTTYAPKFQGKATMTADTSSNTAYLQLTSLTSEDTAVYYCARSTVLDYWGHGTTLTVSS
VL: DVLMTQSPASLSVSLGDRATISCRASQSIVHTNGNTYLEWYLQKPGQSPKLLIYKVSNRFSGVPDRFSGSGSGTDFILKISRVEAEDLGVYYCFQGSHVPPTFGGGTKLEVK
For the molecule B1, in assay [1], the binding result is recorded as “binds”.

B2: W27G2 antibody (mouse W27G2 hybridoma-producing IgA antibody) (antibody, V domains shown)
VH: EVQLQQSGSELVKSGASVKLSCTVSGFNFTDYYIHWVRQRTEQGLEWIGRIDPENDETTYAPKFQGKATMTADTSSNTAYLQLTSLTSEDTAVYYCARSTVLDYWGHGTTLTVSS
VL: DVLMTQTPLSLPVSLGDQASISCRASQSIVHTNGNTYLEWYLQKPGQSPKLLIYKVSNRFSGVPDRFSGSGSGTDFILKISRVEAEDLGVYYCFQGSHVPPTFGGGTKLEVKR
notes: Hybridoma-producing IgA; Both names are treated as one molecule here; W27G2CHT is the hydroxyapatite crude preparation, W27G2GF the gel filtration multimer fraction; also called W27 antibody; W27G2CHT
As to B2, the binding result in assay [1] was “binds”; with E. coli iPGM, “no binding”.

B3: RS_H000_L000GR Fab (Fab, V domains shown)
VH: EVQLQQSGSELVKSGASVKLSCTVSGFNFTDYYIHWVRQRTEQGLEWIGRIDPENDETTYAPKFQGKATMTADTSSNTAYLQLTSLTSEDTAVYYCARSTVLDYWGHGTTLTVSS
VL: DVLMTQTPLSLPVSLGDQASISCRASQSIVHTNGNTYLEWYLQKPGQSPKLLIYKVSNRFSGVPDRFSGSGSGTDFILKISRVEAEDLGVYYCFQGSHVPPTFGGGTKLEVK
notes: also called IgG W27 Fab
Turning to B3, the binding result (in assay [2]; with E. coli SHMT (25-45)) was “binds” in each case.

B4: RS_H000_L001 (antibody, V domains shown)
VH: EVQLQQSGSELVKSGASVKLSCTVSGFNFTDYYIHWVRQRTEQGLEWIGRIDPENDETTYAPKFQGKATMTADTSSNTAYLQLTSLTSEDTAVYYCARSTVLDYWGHGTTLTVSS
VL: DVLMTQSPASLSVSLGDRATISCRASQSIVHTNGNTYLEWYLQKPGQSPKLLIYKVSNRFSGVPDRFSGSGSGTDFILKISRVEAEDLGVYYCFQGSHVPPTFGGGTKLEVK
notes: recombinant multimeric IgA co-expressed with J chain (H:L:J = 2:2:1); mainly dimers by SDS-PAGE; also called rW27
As to B4, in assay [1], the binding result was “binds”.

B5: RS_H007_L002 (antibody, V domains shown)
VH: EVQLQQSGSELVKSGASVKLSCTVSGFNFTNYYIHWVRQRTEQGLEWIGRIDPENNQTTYAPKFQGKATMTADTSSNTAYLQLTSLTSEDTAVYYCARSTVLDYWGHGTTLTVSS
VL: DVLMTQSPASLSVSLGDRVTISCRASQSIVHTNGNTYLEWYLQKPGQSPKLLIYKVSNRFSGVPDRFSGSGSGTDFILKISRVEAEDLGVYYCFQGSHVPPTFGGGTKLEVK
Take B5: the binding result in assay [1] is “binds”.

B6: RS_H007_L004 (antibody, V domains shown)
VH: EVQLQQSGSELVKSGASVKLSCTVSGFNFTNYYIHWVRQRTEQGLEWIGRIDPENNQTTYAPKFQGKATMTADTSSNTAYLQLTSLTSEDTAVYYCARSTVLDYWGHGTTLTVSS
VL: DVLMTQSPASMSVSLGDRATISCRSSQSIVHTNGNTYLEWYLQKPGQSPKLLIYKVSNRFSGVPDRFSGSGSGTDFILKISRVEAEDLGVYYCFQGSHVPPTFGGGTKLEVK
Consider B6, for which the binding result in assay [1] is recorded as “binds”.

B7: RS_H000_L005 (antibody, V domains shown)
VH: EVQLQQSGSELVKSGASVKLSCTVSGFNFTDYYIHWVRQRTEQGLEWIGRIDPENDETTYAPKFQGKATMTADTSSNTAYLQLTSLTSEDTAVYYCARSTVLDYWGHGTTLTVSS
VL: DVLMTQSPASLSVSLGDRATISCRSSQSIVHTNGNTYLEWYLQKPGQSPKLLIYKVSNRFSGVPDRFSGSGSGTDFILKISRVEAEDLGVYYCFQGSHVPPTFGGGTKLEVK
Turning to B7, in assay [1], the binding result is on record as “binds”.

B8: RS_H007_L005 (antibody, V domains shown)
VH: EVQLQQSGSELVKSGASVKLSCTVSGFNFTNYYIHWVRQRTEQGLEWIGRIDPENNQTTYAPKFQGKATMTADTSSNTAYLQLTSLTSEDTAVYYCARSTVLDYWGHGTTLTVSS
VL: DVLMTQSPASLSVSLGDRATISCRSSQSIVHTNGNTYLEWYLQKPGQSPKLLIYKVSNRFSGVPDRFSGSGSGTDFILKISRVEAEDLGVYYCFQGSHVPPTFGGGTKLEVK
Regarding B8, in assay [1], the binding result is on record as “binds”.
